For this experiment, the target named is purified recombinant HCV/E2 of 1a genotype (strain H) expressed in CHO cells (Hepatitis C virus genotype 1a (strain H), UniProt P27958 388-664).

Where only a bound is given, the exact number is not on record here.

Experimental findings from patent US20080241162A1 (GENERAL ANTIBODIES AND BIOTECHNOLOGIES S R L, published 2008) are described below.

purified recombinant HCV/E2 of 1a genotype (strain H) expressed in CHO cells, sequence (P27958 388-664 limits assumed): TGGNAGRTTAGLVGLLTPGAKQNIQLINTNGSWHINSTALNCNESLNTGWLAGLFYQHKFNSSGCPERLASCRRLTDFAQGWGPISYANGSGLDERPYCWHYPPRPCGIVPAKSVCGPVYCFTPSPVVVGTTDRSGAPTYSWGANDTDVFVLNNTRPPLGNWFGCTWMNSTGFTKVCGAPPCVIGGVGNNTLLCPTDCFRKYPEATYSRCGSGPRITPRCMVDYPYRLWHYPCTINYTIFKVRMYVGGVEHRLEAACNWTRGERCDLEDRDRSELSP

B1: human recombinant Fab e137 (Fab, V domains shown)
VH: LLEQSGSEVKVPGSSLKVSCKTSGGTFSTYTFSWVRQAPGQGLEWMGGITPIIGIANYARNFQDRVTITADESTSTVYMEVRRLRSEDTAVYYCAKTSEVTATRGRTFFYSAMDVWGQGT
VL: MAELTQSPSFLSASVGDRVTITCRASQGISNYLAWYQQKPGKAPKLLIYAASTLQSGVPSRFSGSGSWTEFTLTISRLQPEDFATYYCQHLNTYPWTFGQGT
Consider B1, for which the IC50 (as a rule, the concentration needed to halve the response being measured) is 40 µg/mL.

B2: human recombinant Fab e509 (Fab, V domains shown)
VH: LLEESGAEVKKPGSSVKVSCKTSGDTFRYGITWVRQAPGQGLEWMGQIMPTFATATYAQRFQGRVTISADESTSTAYLEVRSLRSEDTAVYYCATPRQVTILRGPKALSPWDYWGQGT
VL: not shown
Regarding B2, the IC50 was below 0.035 µg/mL.

B3: human recombinant Fab e8 (Fab, V domains shown)
VH: LLEQSGAEVKMPGATVKVSCQSSRYTFTSYGIGWVRQAPGQGLEWMGWISGYTHETKYAQSFQGRVTMTAETSTGTAYMELRSLRSDDTATYYCARDGGGRVVVPPTHLRAFDVWGQGT
VL: MAELTQSPGTLSLSPGERATLSCRASHRVNNNFLAWYQQKPGQAPRLLISGASTRATGIPDRFSGSGSGTDFTLTISRLEPDDFAVYYCQQYGDSPLYSFGQGT
On to B3, for which the IC50 is above 40 µg/mL.

B4: human recombinant Fab e20 (Fab, V domains shown)
VH: LLEQSGAEVKKPGSSVKVSCKASGDHYGINWVRQAPGQGLEWMGGIIPVFGTTTYAQKFQGRATITADDSTGTAFLELTRLTFDDTAVYFCATPHQLHVLRGGKALSPWDYWGQGT
VL: MAELTQSPATLSVSPGERATLSCRASQSVSSNLAWYQQKRGQAPSLLIYGTSTRATGIPARFSGSGSGTEFTLTISSLQSEDFAVYYCQQYNDWPSTFGQGT
For the molecule B4, the half-maximal inhibitory concentration (IC50) is 3 µg/mL.

B5: human recombinant Fab e301 (Fab, V domains shown)
VH: LLEQSGSEVKKPGSSVRVSCTTSGGTLSDYGFNWLRQAPGQGPEWMGGIIPLFRRTTYGQKFQGRLTITADESTGATYMELSSLRSDDTAVYYCAREKVSVLTGGKSLHYFEYWGKGT
VL: MAELTQSPATLSVSPGERATLSCRASQSVSSRLAWYQQKRGQAPSLLIYDTSSRATGVPARFSASGSGTQFTLTISSLQSEDFALYYCQQYNDWPSTFGQGT
With B5, the IC50 stood at 3 µg/mL.
